Our source for the stoichiometry N values is publication PMC4422707.

The target of this assay is His-SUMO-2B protein (FMDV non-structural 2B protein fused to SUMO) (foot-and-mouth disease virus (FMDV) serotype Asia1). Kind of assay: cross-linking.

Where “and” joins values, the source holds several entries; their conditions need not be identical. Equal entries are not always repeated.

The term stoichiometry N denotes the number of molecules, sites or subunits per partner or assembly.

Consider “His-SUMO-2B protein (FMDV non-structural 2B protein fused to SUMO) (natural protein)”, for which the stoichiometry N is 2 and 4 and 6.
